Laboratory results reported in patent publication US20260209320A1 (ALCHEMAB THERAPEUTICS, published 2026).

Columns and labels:
[1] = target: T1, Peptide 44 (mouse); assay: peptide microarray; Sp M; IgG 1 µg/ml
T1 peptide: PPPQGQPPPPPPPLP

[2] = target: T2, Peptide 40 (mouse); assay: peptide microarray; Sp M; IgG 1 µg/ml
T2 peptide: QAPPPPPPPPPPQPP

[3] = target: T3, Peptide 32 (mouse); assay: peptide microarray; Sp M; IgG 1 µg/ml
T3 peptide: QQQQQPPPQAPPPPP

[4] = target: T4, Peptide 34 (mouse); assay: peptide microarray; Sp M; IgG 1 µg/ml
T4 peptide: QQQPPPQAPPPPPPP

[5] = target: T5, Peptide 36 (mouse); assay: peptide microarray; Sp M; IgG 1 µg/ml
T5 peptide: QPPPQAPPPPPPPPP

[6] = target: T6, Peptide 37 (mouse); assay: peptide microarray; Sp M; IgG 1 µg/ml
T6 peptide: PPPQAPPPPPPPPPP

[7] = target: T7, Peptide 42 (mouse); assay: peptide microarray; Sp M; IgG 1 µg/ml
T7 peptide: PQPPPQGQPPPPPPP

[8] = target: T8, Peptide 39 (mouse); assay: peptide microarray; Sp M; IgG 1 µg/ml
T8 peptide: PQAPPPPPPPPPPQP

[9] = target: T9, Peptide 38 (mouse); assay: peptide microarray; Sp M; IgG 1 µg/ml
T9 peptide: PPQAPPPPPPPPPPQ

[10] = target: T10, Peptide 33 (mouse); assay: peptide microarray; Sp M; IgG 1 µg/ml
T10 peptide: QQQQPPPQAPPPPPP

[11] = target: T11, Peptide 35 (mouse); assay: peptide microarray; Sp M; IgG 1 µg/ml
T11 peptide: QQPPPQAPPPPPPPP

[12] = target: T12, Peptide 43 (mouse); assay: peptide microarray; Sp M; IgG 1 µg/ml
T12 peptide: QPPPQGQPPPPPPPL

[13] = target: T13, Peptide 4 (human, cyno); assay: peptide microarray; Sp C2; IgG 10 µg/ml
T13 peptide: QQQQQPPPPPPPPPP

[14] = target: T14, Peptide 26 (cyno); assay: peptide microarray; Sp C2; IgG 10 µg/ml
T14 construct: the array is said to hold 15-mers
T14 peptide: QPPPPPPPPPPPPQL

[15] = target: T15, Peptide 31 (cyno); assay: peptide microarray; Sp C2; IgG 10 µg/ml
T15 peptide: LPQPQPPPPPPPPPP

[16] = target: T16, Epitope 1 (human, cyno); assay: peptide microarray; Sp C2; IgG 10 µg/ml
T16 peptide: QQQQPPPPPPPPPPP

[17] = target: T17, Peptide 18 (cyno); assay: peptide microarray; Sp C2; IgG 10 µg/ml
T17 peptide: QQQPPPPPPPPPPPP

[18] = target: T18, Peptide 24 (cyno); assay: peptide microarray; Sp C2; IgG 10 µg/ml
T18 peptide: QQQQQQQQQPPPPPP

[19] = target: T19, Peptide 21 (cyno); assay: peptide microarray; Sp C2; IgG 10 µg/ml
T19 peptide: AQPMLPQPQPPPPPP

[20] = target: T20, Peptide 30 (cyno); assay: peptide microarray; Sp C2; IgG 10 µg/ml
T20 peptide: MLPQPQPPPPPPPPP

[21] = target: T21, Peptide 29 (cyno); assay: peptide microarray; Sp C2; IgG 10 µg/ml
T21 peptide: PMLPQPQPPPPPPPP

[22] = target: T22, Peptide 28 (cyno); assay: peptide microarray; Sp C2; IgG 10 µg/ml
T22 peptide: QPMLPQPQPPPPPPP

[23] = target: T23, Peptide 3 (human, cyno); assay: peptide microarray; Sp C2; IgG 10 µg/ml
T23 peptide: QQQQQQPPPPPPPPP

[24] = target: T24, Peptide 25 (cyno); assay: peptide microarray; Sp C2; IgG 10 µg/ml
T24 peptide: QQPPPPPPPPPPPPQ

[25] = target: T25, Peptide 1 (human, cyno); assay: peptide microarray; Sp C2; IgG 10 µg/ml
T25 peptide: QQQQQQQQPPPPPPP

[26] = target: T26, Peptide 2 (human, cyno); assay: peptide microarray; Sp C2; IgG 10 µg/ml
T26 peptide: QQQQQQQPPPPPPPP

[27] = target: T1, Peptide 44; assay: peptide microarray; Sp M; IgG 10 µg/ml
[28] = target: T2, Peptide 40; assay: peptide microarray; Sp M; IgG 10 µg/ml
[29] = target: T3, Peptide 32; assay: peptide microarray; Sp M; IgG 10 µg/ml
[30] = target: T4, Peptide 34; assay: peptide microarray; Sp M; IgG 10 µg/ml
[31] = target: T5, Peptide 36; assay: peptide microarray; Sp M; IgG 10 µg/ml
[32] = target: T6, Peptide 37; assay: peptide microarray; Sp M; IgG 10 µg/ml
[33] = target: T7, Peptide 42; assay: peptide microarray; Sp M; IgG 10 µg/ml
[34] = target: T8, Peptide 39; assay: peptide microarray; Sp M; IgG 10 µg/ml
[35] = target: T9, Peptide 38; assay: peptide microarray; Sp M; IgG 10 µg/ml
[36] = target: T10, Peptide 33; assay: peptide microarray; Sp M; IgG 10 µg/ml
[37] = target: T11, Peptide 35; assay: peptide microarray; Sp M; IgG 10 µg/ml
[38] = target: T12, Peptide 43; assay: peptide microarray; Sp M; IgG 10 µg/ml
[39] = target: T27, Peptide 9 (human); assay: peptide microarray; Sp H; IgG 10 µg/ml
T27 peptide: AQPLLPQPQPPPPPP

[40] = target: T28, Peptide 12 (human); assay: peptide microarray; Sp H; IgG 10 µg/ml
T28 peptide: LLPQPQPPPPPPPPP

B1: ATL_0005335 (antibody, V domains shown)
VH: EVQLVESGGGLVKPGGSLRLSCAASGFTFNKAWMNWVRQAPGKGLEWVGRIKSGIDGGTTDYAAPVQGRFTISRDDSKNTVYLQMNSLNTEDTAVYYCIPPPYYYYYGLDVWGQGTTVTVSS
VL: QSALTQPASVSGSPGQSITISCTGTSSDIGSYNLVSWYQQHPGNAPKPLIYEGSKRPSGVSARFSGSKSGNTASLTISGLQPEDEADYYCSSYAGFNTLVFGGGTKVTVL
notes: human IgG1; also called ATL_5335
In the case of B1, the corrected fluorescence intensity [1] is reported as 143, the corrected fluorescence intensity [2] is reported as 0 and the corrected fluorescence intensity [3] is reported as 0. The corrected fluorescence intensity [4] was 754, the corrected fluorescence intensity [5] was 778 and the corrected fluorescence intensity [6] was 742. For the same binder, the corrected fluorescence intensity [7] was 612, the corrected fluorescence intensity [8] was 0 and the corrected fluorescence intensity [9] was 194. The corrected fluorescence intensity [10] was 600, the corrected fluorescence intensity [11] was 758 and the corrected fluorescence intensity [12] was 120. It also gave a corrected fluorescence intensity [13] of 10000, a corrected fluorescence intensity [14] of 1910 and a corrected fluorescence intensity [15] of 7740. For the same binder, the corrected fluorescence intensity [16] was 9590, the corrected fluorescence intensity [17] was 8370 and the corrected fluorescence intensity [18] was 3260. For the same binder, the corrected fluorescence intensity [19] was 448, the corrected fluorescence intensity [20] was 6020 and the corrected fluorescence intensity [21] was 4680. The corrected fluorescence intensity [22] was 2670, the corrected fluorescence intensity [23] was 9510 and the corrected fluorescence intensity [24] was 3300. The corrected fluorescence intensity [25] was 7010, the corrected fluorescence intensity [26] was 8870 and the corrected fluorescence intensity [27] was 1250. For the same binder, the corrected fluorescence intensity [28] was 0, the corrected fluorescence intensity [29] was 286 and the corrected fluorescence intensity [30] was 5800. For the same binder, the corrected fluorescence intensity [31] was 8300, the corrected fluorescence intensity [32] was 7370 and the corrected fluorescence intensity [33] was 2280. The corrected fluorescence intensity [34] was 1880, the corrected fluorescence intensity [35] was 3520 and the corrected fluorescence intensity [36] was 3090. It also gave a corrected fluorescence intensity [37] of 7820, a corrected fluorescence intensity [38] of 899 and a corrected fluorescence intensity [39] of 3470. For the same binder, the corrected fluorescence intensity [40] was 8520.

B2: ATL_0005331 (antibody, V domains shown)
VH: EVQLVESGGGLVKPGGSLRLSCAASGFTFNKAWMNWVRQAPGKGLEWVGRIKSGIDGGTTDYAAPVQGRFTISRDDSKNTVYLQMNSLNTEDTAVYYCIPPPYYYYYGLDVWGQGTTVTVSS
VL: QSALTQPRSVSGSPGQSITISCTGTSSDVGSYNLVSWFQQHPGKAPKLIIYEVNKRPSGVPDRFSGSKSGNTASLTVSGLQAEDEADYYCGSYAGTNNVFGTGTKLTVL
notes: human IgG1; also called ATL_5331; Human IgG1 ATL_0005331
B2 gave a corrected fluorescence intensity [1] of 0, a corrected fluorescence intensity [2] of 0 and a corrected fluorescence intensity [3] of 0. For the same binder, the corrected fluorescence intensity [4] was 162, the corrected fluorescence intensity [5] was 190 and the corrected fluorescence intensity [6] was 180. For the same binder, the corrected fluorescence intensity [7] was 41.5, the corrected fluorescence intensity [8] was 0 and the corrected fluorescence intensity [9] was 0. For the same binder, the corrected fluorescence intensity [10] was 0, the corrected fluorescence intensity [11] was 181 and the corrected fluorescence intensity [12] was 14.5. For the same binder, the corrected fluorescence intensity [13] was 4870, the corrected fluorescence intensity [14] was 1040 and the corrected fluorescence intensity [15] was 5480. It also gave a corrected fluorescence intensity [16] of 4580, a corrected fluorescence intensity [17] of 4500 and a corrected fluorescence intensity [18] of 994. It also gave a corrected fluorescence intensity [19] of 888, a corrected fluorescence intensity [20] of 4250 and a corrected fluorescence intensity [21] of 2170. For the same binder, the corrected fluorescence intensity [22] was 1700, the corrected fluorescence intensity [23] was 4830 and the corrected fluorescence intensity [24] was 947. The corrected fluorescence intensity [25] was 2700, the corrected fluorescence intensity [26] was 4070 and the corrected fluorescence intensity [27] was 1740. The corrected fluorescence intensity [28] was 234, the corrected fluorescence intensity [29] was 0 and the corrected fluorescence intensity [30] was 1540. For the same binder, the corrected fluorescence intensity [31] was 2740, the corrected fluorescence intensity [32] was 3160 and the corrected fluorescence intensity [33] was 884. For the same binder, the corrected fluorescence intensity [34] was 842, the corrected fluorescence intensity [35] was 825 and the corrected fluorescence intensity [36] was 633. For the same binder, the corrected fluorescence intensity [37] was 2410, the corrected fluorescence intensity [38] was 997 and the corrected fluorescence intensity [39] was 1260. For the same binder, the corrected fluorescence intensity [40] was 3490.
